The supplement of paper PMC9112550, “Optimization of the antimicrobial peptide Bac7 by deep mutational scanning” (BMC Biology, 2022)

tested on: Escherichia coli TOP10; test: shrunken log2 fold change of peptide-encoding DNA abundance (4.5 h post-induction vs induction); higher = less antimicrobial activity (less host growth inhibition); settings: time post-induction: 4.5 h; library: site-saturation at positions 5, 18, 19, 20
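Note: peptides expressed intracellularly from a pBAD plasmid library in pooled LB shake-flask culture, induced with 0.3% L-arabinose, DNA abundance read by NGS, three biological replicates, DESeq2 with apeglm shrinkage.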

Sequence | shrunken log2 fold change
RRIRIRPPRLPRPRPRPTYLPRP | -0.463
RRIRYRPPRLPRPRPRPMRAPRP | 0.605
RRIRARPPRLPRPRPRPNKSPRP | -0.174
RRIRPRPPRLPRPRPRPNNHPRP | -0.607
RRIRPRPPRLPRPRPRPRESPRP | 0.0752
RRIRWRPPRLPRPRPRPYMIPRP | -1.02
RRIRFRPPRLPRPRPRPLLSPRP | 0.0127
RRIRARPPRLPRPRPRPFQNPRP | -0.124
RRIRWRPPRLPRPRPRPIRPPRP | -0.116
RRIRNRPPRLPRPRPRPYIYPRP | -0.514
RRIRWRPPRLPRPRPRPEYDPRP | 0.695
RRIRPRPPRLPRPRPRPTFPPRP | 0.025
RRIRHRPPRLPRPRPRPYAVPRP | -0.0274
RRIRSRPPRLPRPRPRPIAEPRP | -0.0272
RRIRNRPPRLPRPRPRPKKPPRP | -0.0506
RRIRIRPPRLPRPRPRPEWDPRP | 0.054
RRIRQRPPRLPRPRPRPEWCPRP | -0.0929
RRIRARPPRLPRPRPRPYYFPRP | -0.701
RRIRWRPPRLPRPRPRPRKHPRP | 0.15
RRIRARPPRLPRPRPRPREQPRP | 0.825
RRIRTRPPRLPRPRPRPLPPPRP | 0.333
RRIRFRPPRLPRPRPRPPDEPRP | 0.684
RRIRARPPRLPRPRPRPRDNPRP | 0.295
RRIRSRPPRLPRPRPRPTQDPRP | 0.445
RRIRQRPPRLPRPRPRPMNTPRP | 0.0106

Sequence | shrunken log2 fold change
RRIRMRPPRLPRPRPRPFDKPRP | -0.0136
RRIRKRPPRLPRPRPRPVDWPRP | 0.852
RRIRARPPRLPRPRPRPMLCPRP | 0.637
RRIRKRPPRLPRPRPRPEDTPRP | 0.103
RRIRIRPPRLPRPRPRPVLKPRP | -0.234
RRIRRRPPRLPRPRPRPSRQPRP | 0.352
RRIRERPPRLPRPRPRPMWIPRP | -0.102
RRIRARPPRLPRPRPRPNSVPRP | 0.0162
RRIRRRPPRLPRPRPRPSFCPRP | -0.00369
RRIRWRPPRLPRPRPRPGFGPRP | 0.651
RRIRLRPPRLPRPRPRPKQMPRP | 0.0542
RRIRLRPPRLPRPRPRPSCAPRP | -0.00959
RRIRYRPPRLPRPRPRPYDGPRP | -0.155
RRIRTRPPRLPRPRPRPMAMPRP | 0.0345
RRIRTRPPRLPRPRPRPEKNPRP | 0.0495
RRIRHRPPRLPRPRPRPNHWPRP | -0.594
RRIRYRPPRLPRPRPRPIKPPRP | -0.0229
RRIRGRPPRLPRPRPRPDVRPRP | 0.0237
RRIRPRPPRLPRPRPRPDCVPRP | -0.0187
RRIRGRPPRLPRPRPRPSHAPRP | 0.423
RRIRGRPPRLPRPRPRPGMPPRP | 0.406
RRIRQRPPRLPRPRPRPPHPPRP | 0.548
RRIRARPPRLPRPRPRPFGEPRP | 0.15
RRIRWRPPRLPRPRPRPVKCPRP | -0.015
RRIRYRPPRLPRPRPRPSWMPRP | -0.534

Sequence | shrunken log2 fold change
RRIRNRPPRLPRPRPRPCLYPRP | 0.0767
RRIRGRPPRLPRPRPRPCTMPRP | -0.063
RRIRSRPPRLPRPRPRPEEAPRP | 0.983
RRIRYRPPRLPRPRPRPPSIPRP | -0.285
RRIRHRPPRLPRPRPRPNWNPRP | -0.451
RRIRLRPPRLPRPRPRPQGAPRP | -0.145
RRIRYRPPRLPRPRPRPYADPRP | -0.136
RRIRHRPPRLPRPRPRPMRIPRP | -0.00172
RRIRNRPPRLPRPRPRPFYEPRP | -0.233
RRIRNRPPRLPRPRPRPWVQPRP | 0.00853
RRIRFRPPRLPRPRPRPHGGPRP | 0.0953
RRIRSRPPRLPRPRPRPYARPRP | -0.351
RRIRLRPPRLPRPRPRPCHCPRP | -0.0469
RRIRGRPPRLPRPRPRPAVIPRP | 0.232
RRIRPRPPRLPRPRPRPVYNPRP | 0.88
RRIRGRPPRLPRPRPRPWMFPRP | 0.0448
RRIRDRPPRLPRPRPRPMNVPRP | 0.0651
RRIRPRPPRLPRPRPRPLHKPRP | -0.00927
RRIRKRPPRLPRPRPRPQWKPRP | 0.17
RRIRARPPRLPRPRPRPCRAPRP | 0.261
RRIRSRPPRLPRPRPRPLQHPRP | -0.00742
RRIRGRPPRLPRPRPRPWTAPRP | 0.172
RRIRLRPPRLPRPRPRPKRTPRP | 0.21
RRIRGRPPRLPRPRPRPSSPPRP | -0.0496
RRIRKRPPRLPRPRPRPWKLPRP | -0.14

Sequence | shrunken log2 fold change
RRIRKRPPRLPRPRPRPRQTPRP | 0.0644
RRIRYRPPRLPRPRPRPLFCPRP | -0.579
RRIRERPPRLPRPRPRPICCPRP | -0.133
RRIRHRPPRLPRPRPRPQKHPRP | -0.992
RRIRIRPPRLPRPRPRPSVFPRP | -0.219
RRIRSRPPRLPRPRPRPCWQPRP | -0.00872
RRIRVRPPRLPRPRPRPNVCPRP | -0.111
RRIRMRPPRLPRPRPRPSPRPRP | 1.05
RRIRHRPPRLPRPRPRPIAPPRP | 0.0449
RRIRDRPPRLPRPRPRPGGFPRP | 0.134
RRIRVRPPRLPRPRPRPAERPRP | -0.0583
RRIRQRPPRLPRPRPRPCRLPRP | -0.15
RRIRARPPRLPRPRPRPMFIPRP | 0.0587
RRIRMRPPRLPRPRPRPISNPRP | -0.0517
RRIRDRPPRLPRPRPRPGYDPRP | 0.0286
RRIRDRPPRLPRPRPRPCFEPRP | 0.708
RRIRIRPPRLPRPRPRPWHRPRP | 0.0544
RRIRMRPPRLPRPRPRPCWNPRP | 0.236
RRIRPRPPRLPRPRPRPMAHPRP | -0.165
RRIRLRPPRLPRPRPRPYRTPRP | -0.197
RRIRYRPPRLPRPRPRPPVLPRP | -0.132
RRIRNRPPRLPRPRPRPINCPRP | 0.00363
RRIRTRPPRLPRPRPRPQGNPRP | -0.164
RRIRTRPPRLPRPRPRPKVWPRP | 0.325
RRIRDRPPRLPRPRPRPTTMPRP | 0.0275

Sequence | shrunken log2 fold change
RRIRIRPPRLPRPRPRPRDWPRP | 0.429
RRIRWRPPRLPRPRPRPPDMPRP | 0.0014
RRIRPRPPRLPRPRPRPDLFPRP | 0.0947
RRIRYRPPRLPRPRPRPARMPRP | -0.0508
RRIRCRPPRLPRPRPRPTYHPRP | -0.815
RRIRWRPPRLPRPRPRPQELPRP | -0.0075
RRIRLRPPRLPRPRPRPHQPPRP | 0.18
RRIRYRPPRLPRPRPRPNNQPRP | -1.05
RRIRDRPPRLPRPRPRPFYAPRP | -0.439
RRIRYRPPRLPRPRPRPKSTPRP | -0.634
RRIRQRPPRLPRPRPRPSPVPRP | 0.0734
RRIRWRPPRLPRPRPRPDDVPRP | 0.0399
RRIRIRPPRLPRPRPRPIETPRP | -0.0467
RRIRLRPPRLPRPRPRPILTPRP | -0.281
RRIRLRPPRLPRPRPRPLKMPRP | 1.29
RRIRARPPRLPRPRPRPVNQPRP | -0.0386
RRIRRRPPRLPRPRPRPRKDPRP | 0.302
RRIRARPPRLPRPRPRPDQCPRP | 0.0213
RRIRARPPRLPRPRPRPLNRPRP | 0.0549
RRIRQRPPRLPRPRPRPHWWPRP | 0.38
RRIRHRPPRLPRPRPRPTLIPRP | 0.0888
RRIRTRPPRLPRPRPRPLVVPRP | 0.193
RRIRDRPPRLPRPRPRPDFWPRP | 0.596
RRIRDRPPRLPRPRPRPYMWPRP | 0.0589
RRIRLRPPRLPRPRPRPDESPRP | 0.148

Sequence | shrunken log2 fold change
RRIRGRPPRLPRPRPRPINPPRP | -0.0416
RRIRYRPPRLPRPRPRPPHIPRP | -0.808
RRIRFRPPRLPRPRPRPDCKPRP | 0.154
RRIRGRPPRLPRPRPRPHRWPRP | 0.252
RRIRCRPPRLPRPRPRPNCIPRP | -0.723
RRIRLRPPRLPRPRPRPLNPPRP | -0.0831
RRIRIRPPRLPRPRPRPEHQPRP | -0.0287
RRIRPRPPRLPRPRPRPHKGPRP | 0.0224
RRIRGRPPRLPRPRPRPEVLPRP | 1.83
RRIRERPPRLPRPRPRPIFTPRP | -0.195
RRIRLRPPRLPRPRPRPFHVPRP | -0.0193
RRIRNRPPRLPRPRPRPEGKPRP | -0.0135
RRIRSRPPRLPRPRPRPEKEPRP | 0.00748
RRIRDRPPRLPRPRPRPTSRPRP | 0.208
RRIRKRPPRLPRPRPRPWCEPRP | 0.157
RRIRQRPPRLPRPRPRPSQTPRP | -0.083
RRIRTRPPRLPRPRPRPRVKPRP | -0.0675
RRIRRRPPRLPRPRPRPIADPRP | -0.0686
RRIRSRPPRLPRPRPRPLDKPRP | -0.233
RRIRQRPPRLPRPRPRPRTIPRP | 0.122
RRIRFRPPRLPRPRPRPWRPPRP | 0.275
RRIRDRPPRLPRPRPRPSVWPRP | 0.404
RRIRERPPRLPRPRPRPMEQPRP | -0.136
RRIRPRPPRLPRPRPRPDNQPRP | -0.357
RRIRCRPPRLPRPRPRPHTWPRP | -0.216
